# In article PMC6400558 (2019):
# B1: MBP-tagged Hook2 Hook+CC1 (N427) WT [human] / GST-tagged LIC1 (389–523 aa) [not stated] (parent complex)
# chain 1: MSVDKAELCGSLLTWLQTFHVPSPCASPQDLSSGLAVAYVLNQIDPSWFNEAWLQGISEDPGPNWKLKVSNLKMVLRSLVEYSQDVLAHPVSEEHLPDVSLIGEFSDPAELGKLLQLVLGCAISCEKKQDHIQRIMTLEESVQHVVMEAIQELMTKDTPDSLSPETYGNFDSQSRRYYFLSEEAEEGDELQQRCLDLERQLMLLSEEKQSLAQENAGLRERMGRPEGEGTPGLTAKKLLLLQSQLEQLQEENFRLESGREDERLRCAELEREVAELQHRNQALTSLAQEAQALKDEMDELRQSSERAGQLEATLTSCRRRLGELRELRRQVRQLEERNAGHAERTRQLEDELRRAGSLRAQLEAQRRQVQELQGQRQEEAMKAEKWLFECRNLEEKYESVTKEKERLLAERDSLREANEELRCAQLQ
# chain 2: TAAGRPVDASPRVPGGSPRTPNRSVSSNVASVSPIPAGSKKIDPNMKAGATSEGVLANFFNSLLSKKTGSPGGPGVSGGSPAGGAGGGSSGLPPSTKKSGQKPVLDVHAELDRITRKPVTVSPTTPTSPTEGEAS
# Variants of: B1
# Assay: GST pull-down, anti-MBP immunoblot, band intensity quantified; n = 3; parent: 0.95; read off a plot
row,Variant,response [Pulldown/Input]
1,chain 1 Q143A,~0.22
2,chain 1 I150A,~0.18
